This note sets out measurements from article PMC5291255.

The target of this data set is T1, nPfh1-K338A (His6-Trx-nPfh1-K338A-FLAG) (Schizosaccharomyces pombe, UniProt Q9UUA2 =MG+22-805, K338A;internal_change).
T1 sequence: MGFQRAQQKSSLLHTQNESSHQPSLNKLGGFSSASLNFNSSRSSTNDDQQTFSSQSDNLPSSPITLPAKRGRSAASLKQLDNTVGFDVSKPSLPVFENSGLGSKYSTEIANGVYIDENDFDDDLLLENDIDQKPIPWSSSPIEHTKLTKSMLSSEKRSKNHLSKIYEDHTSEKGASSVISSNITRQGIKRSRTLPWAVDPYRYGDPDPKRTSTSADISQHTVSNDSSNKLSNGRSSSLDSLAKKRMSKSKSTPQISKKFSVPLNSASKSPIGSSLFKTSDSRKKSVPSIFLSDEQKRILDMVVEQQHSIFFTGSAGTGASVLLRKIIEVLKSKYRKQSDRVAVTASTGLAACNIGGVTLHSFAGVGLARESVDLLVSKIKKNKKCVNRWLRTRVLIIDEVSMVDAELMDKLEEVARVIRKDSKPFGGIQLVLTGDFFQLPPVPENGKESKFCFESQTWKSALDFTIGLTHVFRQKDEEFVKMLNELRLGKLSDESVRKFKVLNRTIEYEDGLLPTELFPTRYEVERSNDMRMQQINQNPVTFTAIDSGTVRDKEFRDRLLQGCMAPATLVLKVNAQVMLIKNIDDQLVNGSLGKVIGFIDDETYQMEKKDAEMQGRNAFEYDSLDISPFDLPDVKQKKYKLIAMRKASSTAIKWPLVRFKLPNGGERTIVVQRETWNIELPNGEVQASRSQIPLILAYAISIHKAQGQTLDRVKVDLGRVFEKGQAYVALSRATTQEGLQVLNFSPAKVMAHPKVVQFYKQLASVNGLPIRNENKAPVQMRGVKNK
In words: EMSA. (In EMSA bound probe runs differently from free probe, usually more slowly.)

With AAAAAAAAAA (ssDNA) [Poly(A)10], the binding result is on record as “no binding”.
